Measured values: article PMC10347550, “Cyclic Ruthenium-Peptide Conjugates as Integrin-Targeting Phototherapeutic Prodrugs for the Treatment of Brain Tumors” (Journal of the American Chemical Society, 2023)
Like-named read-outs stand apart in the source and are kept apart here.

What was measured:
[1] = Octanol-water partition coefficient (log P); type: physicochemical; details: shake-flask, octanol-saturated water / water-saturated octanol, shaken 24 h in the dark, room temperature; Ru in water phase by ICP-MS; ± SD from 4 concentration points
Protocol: Each complex was first dissolved in octanol-saturated water (0.5 mM, 500 μL) and centrifuged (2000 rpm, 5 min) to isolate the undissolved solid. 450 μL of the supernatant was taken out as the stock solution; after that, 5, 10, 50, 100, and 150 μL of solution were added to the 15 mL tube, and more octanol-saturated water was added to adjust the final volume to 1 mL. 1 mL of water-saturated octanol was added further, and the tubes were mildly shaken (Gesellschaft für Labortechnik mbH, type3016) for 24 h under dark conditions. After that, the solutions were centrifuged for 5 min at 2000 rpm at room temperature, and 0.5 mL of the water phase (below phase) was moved to a 15 mL centrifuge tube by an Eppendorf pipette. Then, 0.1 mL of 65% HNO3 was added into the tube using an organic pipette gun, and each solution was shaken for 1 h. 9.9 mL of MilliQ water was added into each tube, making a total volume of 10 mL. To detect the Ru content of the stock solution, 10 μL of each stock solution was mixed with 0.490 mL of 65% HNO3, and the mixture was shaken for 1 h. Then, […] of MilliQ water was added to the tube, making a total volume of 10 mL. ICP-MS measurement was performed using a NexION 2000 from PerkinElmer. The ruthenium content in each well was obtained in ppb. The partition coefficients (log P) were calculated using the following eq 3 [drawing 3] 3
where [complex]total is the concentration of the complex in the control sample (where no water-saturated octanol was added) and [complex]water is the concentration of the complex in the aqueous layer.

U87MG cells [2] = experiment: Apopxin/Nuclear Green DCS1 double-staining cell death mode study; type: cell-based, human; details: 20 μM, 24 h incubation, 1 h after green light (13.1 J/cm^2), flow cytometry
Protocol: After 24 h of incubation, one plate labeled light was irradiated for 20 min using 520 nm green light (13.1 J/cm^2), and then both plates were allowed to incubate further for 1, 2, 6, or 24 h in a normoxia incubator. After incubation, the cells were trypsinized, collected, and washed with cold PBS twice. […] Cells after staining were detected by flow cytometry (CytoFLEX flow cytometer) immediately. Control groups with only assay buffer, only buffer and Apopxin Deep Red Indicator, only buffer and Nuclear Green DCS1, and all three were included to be used for gating during data analysis. Parameters APC (638 nm excitation, 660/10 nm emission) and FITC (488 nm excitation, 525/40 nm emission) were used considering their similar excitation/emission wavelength with two detectors Apopxin Deep Red Indicator, Ex/Em = 630/660 nm (apoptosis), and Nuclear Green DCS1, Ex/Em = 490/520 nm (necrosis).

PC-3 cells = experiment: Cellular Ru uptake by ICP-MS; type: cell-based, human; details: dark, 6 h, triplicate wells, ± SEM
Protocol: (§1) U87MG cells (6000), PC-3 cells (5000), and MCF7 cells (8000) were seeded in 96-well plates, each well containing 100 μL of Opti-MEM. After 24 h, 12.5 μM drugs dissolved in Opti-MEM were added to each well and the plates were incubated in a normoxic or hypoxic incubator for 6 h. After that, the drug-containing medium was removed from each well, which was washed with PBS buffer once. Then, cells were stained by Nuclear Blue (Invitrogen, R37605) for 30 min to stain all nuclei (2 drops/mL medium). After this, the dye was thereafter removed and replaced with fresh medium. The entire well was imaged with 10× objective magnification and 7 × 6 montage using epifluorescence on a Nikon TiE2000 widefield microscope with a perfect focus system and automated xy-stage. The cell number of every well was analyzed by counting the nuclei using Image-Pro Analyzer 7.0. Thereafter, the medium was removed and the cells were digested by adding 100 μL of 65% HNO3 for 30 min at room temperature. The cell lysates were transferred into a 96-deep well plate (Eppendorf, E951033502), followed by the addition of 0.9 mL of MilliQ water into each well, and the plate was then mixed well with a 1000 μL Eppendorf pipette.
(§2) The ruthenium concentration was measured in each sample by ICP-MS (NexION 2000, PerkinElmer), providing the metal content in each well in ppb. Combining the cell numbers and Ru uptake, averaging over technical triplicates, the ruthenium uptake values were finally expressed in μg Ru/million cells.

U87MG cells [3] = experiment: Cellular Ru uptake by ICP-MS; type: cell-based, human; details: dark, 6 h, triplicate wells, ± SEM
Protocol: as §1, §2

MCF7 cells = experiment: Cellular Ru uptake by ICP-MS; type: cell-based, human; details: dark, 6 h, triplicate wells, ± SEM
Protocol: as §1, §2

[4] = Nanoaggregation in Opti-MEM by DLS and TEM; type: physicochemical; details: dark; for DLS size distribution: 24 h
Protocol: DLS was used to determine the distribution of particles in complex solutions (50 μM) in Opti-MEM (Gibco complete medium 11058-021, supplemented with 0.2% v/v penicillin/streptomycin (P/S), and 1% v/v glutamine) with or without 2.5% fetal calf serum (FCS) proteins via a ZEN1600 Zetasizer Nano instrument (Malvern Instruments Limited) operated with a 633 nm laser.
The TEM experiments were carried out with a TEM JEOL 1010:100 kV transmission electron microscope using a Formvar/carbon-coated copper grid (Polysciences Inc.). For the preparation of samples, a 1 mM stock aqua solution was diluted to 50 μM by Opti-MEM, after which, each drop (15 μL) of the complex solution was deposited on a parafilm (Bemis, HS234526C). The grids (Electron Microscopy Sciences, 71137) were placed on top of the drops for 5 min and then the excess liquid on the grid was removed with filter paper and air dried for 2 h for the TEM measurement. The TEM measurements were carried out under vacuum conditions.

U87MG spheroids = experiment: 3D tumor spheroid viability assay, CellTiter-Glo 3D; type: cell-based, human; details: U87MG 3D spheroids; for EC50: CellTiter-Glo 3D at 96 h, n = 3
Protocol: The spheroids were incubated further under normoxia. […] After 30 min of shaking on an IKA Vibrax shaker at 500 rpm at room temperature, the luminescence in each well was measured with a Tecan microplate reader. […] All experiments were conducted in three biologically independent replicates.

U87MG cells [5] = experiment: Intracellular ROS generation, CellROX Deep Red, flow cytometry; details: 15 µM, 24 h
[6] = 21% O2, dark, 24 h treatment, read-out: EC50,dark
[7] = 21% O2, green light after 24 h treatment, read-out: EC50,light

| PI (EC50,dark/EC50,light) (U87MG spheroids; 21% O2) | EC50 (U87MG spheroids; [6]) | EC50 (U87MG spheroids; [7]) | Substance | log P (octanol-water partition coefficient) [1] | cell death mode (U87MG cells [2]) | Ru accumulation (PC-3 cells; PC-3, hypoxia 1% O2, 12.5 µM) | Ru accumulation (PC-3 cells; PC-3, normoxia 21% O2, 12.5 µM) | Ru accumulation (U87MG cells [3]; hypoxia 1% O2, 12.5 µM) | Ru accumulation (U87MG cells [3]; normoxia 21% O2, 12.5 µM) | Ru accumulation (MCF7 cells; MCF7, hypoxia 1% O2, 12.5 µM) | Ru accumulation (MCF7 cells; MCF7, normoxia 21% O2, 12.5 µM) | DLS size distribution ([4]; 50 μM in Opti-MEM with 2.5% FCS) | DLS size distribution ([4]; 50 μM in Opti-MEM without FCS) | Ratio of L/D (light/dark ROS ratio) (U87MG cells [5]) | Ru accumulation (PC-3 cells; PC-3, hypoxia 1% O2, 12.5 µM, listed as L-[1]Cl2) | Ru accumulation (PC-3 cells; PC-3, normoxia 21% O2, 12.5 µM, listed as L-[1]Cl2) | Ru accumulation (U87MG cells [3]; hypoxia 1% O2, 12.5 µM, listed as L-[1]Cl2) | Ru accumulation (MCF7 cells; MCF7, normoxia 21% O2, 12.5 µM, listed as L-[1]Cl2) | nanoparticle formation (DLS) ([4]; 50 μM in Opti-MEM with 2.5% FCS, 24 h (Figure S20)) |
| --- | --- | --- | --- | --- | --- | --- | --- | --- | --- | --- | --- | --- | --- | --- | --- | --- | --- | --- | --- |
| 4.2 | 46 µM | 10.9 µM | [Ru(Ph2phen)2(κ^S,κ^N-(Ac-MRGDH-NH2))]Cl2 (sidechain bridge or staple) [Δ-[1]Cl2] | 0.00 ± 0.02 | died mainly via necrosis | 0.63 ± 0.02 µg Ru/million cells | 0.51 ± 0.01 µg Ru/million cells | 0.78 ± 0.01 µg Ru/million cells | 0.73 ± 0.01 µg Ru/million cells | 0.31 ± 0.01 µg Ru/million cells | 0.21 ± 0.01 µg Ru/million cells | around 100 nm | above 1 μm | 8.24 |  |  |  |  |  |
| 4.9 | 37 µM | 7.6 µM | [Ru(Ph2phen)2(κ^S,κ^N-(Ac-MRGDH-NH2))]Cl2 (sidechain bridge or staple) [Λ-[1]Cl2] | −0.03 ± 0.02 | died mainly via necrosis |  |  |  | 0.74 ± 0.01 µg Ru/million cells | 0.31 ± 0.01 µg Ru/million cells |  |  |  | 7.03 | 0.68 ± 0.01 µg Ru/million cells | 0.55 ± 0.03 µg Ru/million cells | 0.84 ± 0.01 µg Ru/million cells | 0.25 ± 0.01 µg Ru/million cells | Nanoparticles of similar size were observed |
